Data from article PMC6050966, “Structure-Function Analysis of the Curli Accessory Protein CsgE Defines Surfaces Essential for Coordinating Amyloid Fiber Formation” (mBio, 2018).

Assays:
[1] = target: CsgE W48A (E. coli MC4100); assay: native gel or EMSA; native PAGE of purified CsgE (monomer peak) incubated at 4°C or 25°C for various times
[2] = target: CsgE F79A (E. coli MC4100); assay: as above
[3] = target: 6x-His-tagged CsgA lacking the 20-residue N-terminal signal sequence (E. coli) (UniProt P28307)
P0AE95 [4] = assay: SEC; Superdex 200 10/300, 50 mM potassium phosphate, 150 mM NaCl, pH 7.4; purified CsgE (20 µM) incubated at 25°C for 5 h to 28 h; monomer to nonamer
[5] = target: T1, 6x-His-tagged CsgA lacking the 20-residue N-terminal signal sequence (E. coli, UniProt P28307 21-151); assay: NMR titration; 1H-15N HSQC chemical shift perturbation at one ratio: 15N-labeled WT CsgE (80 µM, 0.4 M arginine) with or without unlabeled CsgA (80 µM); settings: both partners purified
T1 construct: Freshly purified, unfolded monomer; also called unlabeled CsgA; monomeric CsgA

P0AE95 [6] = assay: SEC; Superdex 200 10/300, 50 mM potassium phosphate, 150 mM NaCl, pH 7.4; purified CsgE (20 µM) incubated at 37°C; monomer to nonamer and larger oligomers
P0AE95 [7] = assay: SEC-MALS; Superdex 200 Increase 10/300 GL, 0.3 ml/min; protein at 2 mg/ml in 50 mM KHPO4 pH 7.3 with and without 150 mM NaCl
[8] = target: T2, WT CsgE (6x-His-tagged, E. coli MC4100) (E. coli MC4100), P0AE95; assay: SEC; Superdex 200 10/300, 50 mM potassium phosphate, 150 mM NaCl, pH 7.4; purified CsgE (20 µM) incubated at 25°C for 5 h to 28 h; monomer to nonamer; settings: remark: other sources report otherwise
T2 chain: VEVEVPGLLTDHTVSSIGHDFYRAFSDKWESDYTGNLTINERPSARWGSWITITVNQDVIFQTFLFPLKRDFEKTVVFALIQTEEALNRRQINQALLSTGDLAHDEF

[9] = target: T2, WT CsgE (6x-His-tagged, E. coli MC4100) …; assay: native gel or EMSA; native PAGE of purified CsgE (monomer peak) incubated at 4°C or 25°C for various times; settings: remark: other sources report otherwise
[10] = target: T2, WT CsgE (6x-His-tagged, E. coli MC4100) …; assay: SEC; Superdex 200 10/300, 50 mM potassium phosphate, 150 mM NaCl, pH 7.4; purified CsgE (20 µM) immediately after purification and kept at 4°C for up to 20 days; monomer to nonamer; settings: remark: other sources report otherwise
[11] = target: T2, WT CsgE (6x-His-tagged, E. coli MC4100) …; assay: SEC; Superdex 200 10/300, 50 mM potassium phosphate, 150 mM NaCl, pH 7.4; purified CsgE (20 µM) incubated at 37°C; monomer to nonamer and larger oligomers; settings: remark: other sources report otherwise
[12] = target: T2, WT CsgE (6x-His-tagged, E. coli MC4100) …; assay: SEC-MALS; Superdex 200 Increase 10/300 GL, 0.3 ml/min; protein at 2 mg/ml in 50 mM KHPO4 pH 7.3 with and without 150 mM NaCl; settings: remark: other sources report otherwise

Sequence of 6x-His-tagged CsgA lacking the 20-residue N-terminal signal sequence (E. coli) (P28307 21-151): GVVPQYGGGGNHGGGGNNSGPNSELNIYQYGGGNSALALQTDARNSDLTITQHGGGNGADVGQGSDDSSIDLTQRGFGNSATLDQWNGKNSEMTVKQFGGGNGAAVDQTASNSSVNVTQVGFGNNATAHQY
T1 sequence (P28307 21-151): as above

How did the stoichiometry N [1] turn out when CsgE W48A (natural protein) was run?
Its stoichiometry N is 9.

CsgE F79A (natural protein) was tested. Which stoichiometry N [2] did it give?
The stoichiometry N was 9.

For CsgE R47A (natural protein), which Thioflavin T fluorescence of CsgA polymerization (25°C, 48 h): T50 of CsgA with CsgE R47A relative to WT CsgE (% decrease of T50 relative to WT CsgE) [3] is on record?
Its Thioflavin T fluorescence of CsgA polymerization (25°C, 48 h): T50 of CsgA with CsgE R47A relative to WT CsgE (% decrease of T50 relative to WT CsgE) is over 50.

B1: WT CsgE (6x-His-tagged, E. coli MC4100) (natural protein, UniProt P0AE95 23-129, looked up)
chain: T2 chain
notes: CsgE, periplasmic curli accessory protein of E. coli MC4100; add 21 for the precursor numbering of P0AE95; 15N-labeled (M9 minimal medium with [15N]ammonium sulfate) for NMR; Monomer peak of the S-100 column was used for SEC and native PAGE; also called wild-type CsgE; recombinant WT CsgE
Which results are given for B1?
nonamer peak area as percent of monomer peak area, after 5 h at 25°C (P0AE95 [4]): the nonamer peak area was approximately 20% of the monomer peak area; nonamer peak area as percent of monomer peak area, after 28 h at 25°C (P0AE95 [4]): the nonamer peak area was approximately 40% of the monomer peak area; binding result [5]: binds; loss of monomer peak area within 1 h at 37°C (P0AE95 [6]): the monomeric peak loses >65% of its area within 1 h of incubation; high-molecular-weight aggregate, percent of the loaded mass (P0AE95 [7]): a large, high-molecular-weight aggregate representing 32% of the loaded mass

B2: WT CsgE (6x-His-tagged, E. coli MC4100), P0AE95 23-129 (natural protein)
chain: T2 chain
For B2, which stoichiometry N [8] is on record?
The stoichiometry N was 9.

And the stoichiometry N [9]?
The stoichiometry N was 9.

And the monomer, percent of peak area [10]?
Its monomer, percent of peak area is over 90%.

And the stoichiometry N [10]?
The stoichiometry N was 9.

What about the stoichiometry N [11] of the same molecule?
The stoichiometry N was 9.

What about the small oligomer, percent of the mass [12] of the same molecule?
The small oligomer, percent of the mass was 2%.
